Measurements from publication PMC2927733.
Where “and” joins values, the source holds several entries; their conditions need not be identical. Equal entries are not always repeated. Values belong to the substance of their own block, whether it stands above or below them.

Experiments:
[1] = biological target: PccB D422A (Streptomyces coelicolor); assay: crystal structure
[2] = biological target: PccB D422C (Streptomyces coelicolor); assay: SEC
[3] = biological target: PccB D422C (Streptomyces coelicolor); assay: crystal structure
[4] = biological target: PccB D422E (Streptomyces coelicolor); assay: SEC
[5] = biological target: PccB D422F (Streptomyces coelicolor); assay: SEC
[6] = biological target: PccB D422I (Streptomyces coelicolor); assay: SEC
[7] = biological target: PccB D422L (Streptomyces coelicolor); assay: SEC
[8] = biological target: PccB D422L (Streptomyces coelicolor); assay: crystal structure
[9] = biological target: PccB D422N (Streptomyces coelicolor); assay: SEC
[10] = biological target: PccB D422N (Streptomyces coelicolor); assay: crystal structure
[11] = biological target: PccB D422Q (Streptomyces coelicolor); assay: SEC
[12] = biological target: PccB D422V (Streptomyces coelicolor); assay: SEC
[13] = biological target: PccB D422V (Streptomyces coelicolor); assay: crystal structure
[14] = biological target: PccB D422Y (Streptomyces coelicolor); assay: SEC
[15] = biological target: PccB N80A (Streptomyces coelicolor); assay: SEC
[16] = biological target: PccB R456A (Streptomyces coelicolor); assay: SEC
[17] = biological target: PccB R456A/R457A (Streptomyces coelicolor); assay: SEC
[18] = biological target: wild type PccB, β subunit of propionyl-CoA carboxylase (PCC) of Streptomyces coelicolor (Streptomyces coelicolor); assay: SEC

Substance: PccB D422A (enzyme)
stoichiometry N [1]: 6

Substance: PccB D422I (enzyme)
stoichiometry N [6]: 6

Substance: PccB D422L (enzyme)
stoichiometry N [7]: 6
stoichiometry N [8]: 6

Substance: PccB D422N (enzyme)
stoichiometry N [9]: 6
stoichiometry N [10]: 6

Substance: PccB D422Q (enzyme)
stoichiometry N [11]: 2 and 3

Substance: PccB D422Y (enzyme)
stoichiometry N [14]: 6

Substance: PccB N80A (enzyme)
ratio of dimer to hexamer (dimer:hexamer) [15]: 2
stoichiometry N [15]: 2 and 6

Substance: PccB R456A/R457A (enzyme)
ratio of dimer to hexamer (dimer:hexamer) [17]: 2.9
stoichiometry N [17]: 2 and 6

The next lines start with the values.

stoichiometry N [2]: 6
stoichiometry N [3]: 6
Substance: PccB D422C (enzyme)

stoichiometry N [4]: 6
Substance: PccB D422E (enzyme)

stoichiometry N [5]: 2 and 3
Substance: PccB D422F (enzyme)

stoichiometry N [12]: 6
stoichiometry N [13]: 6
Substance: PccB D422V (enzyme)

ratio of dimer to hexamer (dimer:hexamer) [16]: 2.2
stoichiometry N [16]: 2 and 6
Substance: PccB R456A (enzyme)

stoichiometry N [18]: 6
Substance: wild type PccB, β subunit of propionyl-CoA carboxylase (PCC) of Streptomyces coelicolor (enzyme)
